In the RNAGym collection of RNA variant scans (doi:10.7554/elife.80360):

B1: Hairpin Ribozyme (parent)
chain: GUCCUCUUUCACGUGCGCGUGAAAGAGAGAAGUGAACCAGAGAAACACACGUUGUGGUAUAUUACCUGGUA

Variants of: B1
Test: self-cleavage, relative activity (ratio to wild type); higher = more cleavage; co-transcriptional

Compared with GUCCUCUUUCACGAGCGCGUGAAAGGGAGAAGUGAACCAGAGAAACACACGUUGUGGUAUAUUACCUGGUA [U14A A26G], GUCCUCUUUCACUUGCGCGUGAAAGAGACAAGUGAACCAGAGAAACACACGUUGUGGUAUAUUACCUGGUA [G13U G29C] is lower in self-cleavage: 0.575 for the first, 0.133 for the second.

Compared with GUCCUCUUUCACUUGCGCGUGAAAGAGAAAAGUGAACCAGAGAAACACACGUUGUGGUAUAUUACCUGGUA [G13U G29A], GUCCUCUUUCACCUGCGCGUGAAAGAGAGAAGUGAACCAGAGAAACACACGUUGUGGUAUAUUACCAGGUA [G13C U67A] is higher in self-cleavage: 0.157 for the first, 0.189 for the second.

Going from GUCCUCUUUCACUUGCGCGUGAAAGAGAGAAGUGAACCAGAGAAACACACGUUGUGGUAUAUUACCUGGGA [G13U U70G] to GUCCUCUUUCACUUGCGCGUGAAAGAGAGAAGUGAACCAGAGAAACACACGUUGUGGUAUAUUACCUGGCA [G13U U70C], the self-cleavage rises from 0.78 to 0.784.

Compared with GUCCUCUUUCACUUGCGCGUGGAAGAGAGAAGUGAACCAGAGAAACACACGUUGUGGUAUAUUACCUGGUA [G13U A22G], GUCCUCUUUCACUUGCGCGUGAAAGAGAGAAGUGAACCAGAGAAACACACGUUGUGGUAUAUUACCUAGUA [G13U G68A] is lower in self-cleavage: 0.659 for the first, 0.207 for the second.

Compared with GUCCUCUUUCACUUGCGCGUGAAAGAGAGAAGUGAACCAGAGAAACACACGUUGUGGGAUAUUACCUGGUA [G13U U58G], GUCCUCUUUCACUUGCGCGUGAAAGAGCGAAGUGAACCAGAGAAACACACGUUGUGGUAUAUUACCUGGUA [G13U A28C] is lower in self-cleavage: 0.645 for the first, 0.34 for the second.

First: GUCCUCUUUCACUUGCGCGUGAAAGAGAGAAGUGAACCAGAGAAACACACGUUGUGGUAUGUUACCUGGUA [G13U A61G]
Second: GUCCUCUUUCACUUGCGCGUGAAAGAGAGAAGUGAACCAGAGAAACACACGUUGUGGUAUCUUACCUGGUA [G13U A61C]
The self-cleavage of the first is lower: 0.147 for the first, 0.173 for the second.

Going from GUCCUCUUUCACUUGCGCGUGAAAGAGAGAAGUGAACCAGAGAAACACACGUUGUGGUGUAUUACCUGGUA [G13U A59G] to GUCCUCUUUCACUUGCGCUUGAAAGAGAGAAGUGAACCAGAGAAACACACGUUGUGGUAUAUUACCUGGUA [G13U G19U], the self-cleavage rises from 0.0932 to 0.895.

Compared with GUCCUCUUUCACUUGCGCGUGAAAGAGAGAAGUGAACCAGAGAAAGACACGUUGUGGUAUAUUACCUGGUA [G13U C46G], GUCCUCUUUCACUUGCGCGUGAAAGAGAGAAGUGAACCAGAGAAAUACACGUUGUGGUAUAUUACCUGGUA [G13U C46U] is higher in self-cleavage: 0.121 for the first, 0.137 for the second.

First: GUCCUCUUUCACGAGCGCGUGAAAGAGAGACGUGAACCAGAGAAACACACGUUGUGGUAUAUUACCUGGUA [U14A A31C]
Second: GUCCUCUUUCACGAGCGCGUGAAAGAGAGAGGUGAACCAGAGAAACACACGUUGUGGUAUAUUACCUGGUA [U14A A31G]
The self-cleavage of the first is lower: 0.391 for the first, 0.52 for the second.

First: GUCCUCUUUCACUUGCGCGUGAAAGAGAGAAGUGAACCAGAGAAACACACGUUGUGGUAAAUUACCUGGUA [G13U U60A]
Second: GUCCUCUUUCACUUGCGCGUGAAAGAGAGAAGUGAACCAGAGAAACACACGUUGUGGUAGAUUACCUGGUA [G13U U60G]
The self-cleavage of the first is higher: 0.696 for the first, 0.404 for the second.

Compared with GUCCUCUUUCACUUGCGCGUGAAAGAGAGAAGUGAACCAGAGAAACACACGUUGUGGUACAUUACCUGGUA [G13U U60C], GUCCUCUUUCACUUGCGCGUGAAAGAGAGAAGUGAACCAGAGAAACACACGAUGUGGUAUAUUACCUGGUA [G13U U52A] is lower in self-cleavage: 0.902 for the first, 0.83 for the second.

Going from GUCCUCUUUCACUUGCGCGUGAAAGAGAGAAGUGAACCAUAGAAACACACGUUGUGGUAUAUUACCUGGUA [G13U G40U] to GUCCUCUUUCACUUGCGCGUGAAAGAGAGAAGUGAACCACAGAAACACACGUUGUGGUAUAUUACCUGGUA [G13U G40C], the self-cleavage falls from 0.153 to 0.122.

Going from GUCCUCUUUCACUUGAGCGUGAAAGAGAGAAGUGAACCAGAGAAACACACGUUGUGGUAUAUUACCUGGUA [G13U C16A] to GUCCUCUUUCACUUGCGCGUGAUAGAGAGAAGUGAACCAGAGAAACACACGUUGUGGUAUAUUACCUGGUA [G13U A23U], the self-cleavage rises from 0.558 to 0.709.

Compared with GUCCUCUUUCACUUGCGCGUUAAAGAGAGAAGUGAACCAGAGAAACACACGUUGUGGUAUAUUACCUGGUA [G13U G21U], GUCCUCUUUCACUUGCGCGUGAAAGAGAGAAGUGAACCAGAGAAACACACGUUGUGGUAUAUUACUUGGUA [G13U C66U] is lower in self-cleavage: 0.53 for the first, 0.502 for the second.

Compared with GUCCUCUUUCACUUGCGCGUGAAAGAGAGAAGUGAACCAGAGAAACACACGUUCUGGUAUAUUACCUGGUA [G13U G54C], GUCCUCUUUCACGAGCGCGUGAAAGAGAGAAGUGAACCAGAGACACACACGUUGUGGUAUAUUACCUGGUA [U14A A44C] is lower in self-cleavage: 0.293 for the first, 0.14 for the second.

First: GUCCUCUUUCACGAGCGCGUGAAAGAGAGAAGUGAACCAGAGAGACACACGUUGUGGUAUAUUACCUGGUA [U14A A44G]
Second: GUCCUCUUUCACUUGCGCGUGAAAGAGAGAAGUGAACAAGAGAAACACACGUUGUGGUAUAUUACCUGGUA [G13U C38A]
The self-cleavage of the first is higher: 0.189 for the first, 0.188 for the second.

Compared with GUCCUCUUUCACUUGCGCGUGAAAGAGAGAAGUGAACUAGAGAAACACACGUUGUGGUAUAUUACCUGGUA [G13U C38U], GUCCUCUUUCACUUGCACGUGAAAGAGAGAAGUGAACCAGAGAAACACACGUUGUGGUAUAUUACCUGGUA [G13U G17A] is higher in self-cleavage: 0.231 for the first, 0.69 for the second.

First: GUCCUCUUUCACUUGCGCGUGAAAGAGAGAAGUGAUCCAGAGAAACACACGUUGUGGUAUAUUACCUGGUA [G13U A36U]
Second: GUCCUCUUUCACUUGCGCGUGAAAGAGAGAAUUGAACCAGAGAAACACACGUUGUGGUAUAUUACCUGGUA [G13U G32U]
The self-cleavage of the first is higher: 0.47 for the first, 0.157 for the second.

Compared with GUCCUCUUUCACUUGCGCGUGAAAGCGAGAAGUGAACCAGAGAAACACACGUUGUGGUAUAUUACCUGGUA [G13U A26C], GUCCUCUUUCACUUGCGCGUGAAAGUGAGAAGUGAACCAGAGAAACACACGUUGUGGUAUAUUACCUGGUA [G13U A26U] is higher in self-cleavage: 0.416 for the first, 0.52 for the second.
